{
  "source": "the RNAGym collection of RNA variant scans (doi:10.7554/elife.80360)",
  "parents": {"B1": {"name": "CPEB3 Ribozyme (parent)", "chain": "GGGGGCCACAGCAGAAGCGUUCACGUCGCGGCCCCUGUCAGAUUCUGGUGAAUCUGCGAAUUCUGCUGU"}},
  "data": [
    {"variants_of": "B1", "assay": "self-cleavage, relative activity (ratio to wild type); higher = more cleavage; co-transcriptional", "values": [
      {"variant": "A15C G65A", "self-cleavage": 0.43},
      {"variant": "A15G G47A", "self-cleavage": 0.971},
      {"variant": "A15G U62A", "self-cleavage": 0.906},
      {"variant": "A15G U62C", "self-cleavage": 0.956},
      {"variant": "A15G C35A", "self-cleavage": 0.273},
      {"variant": "A15G C35U", "self-cleavage": 0.96},
      {"variant": "A15G C35G", "self-cleavage": 0.457},
      {"variant": "G14U G19A", "self-cleavage": 0.148},
      {"variant": "G14U C27U", "self-cleavage": 0.15},
      {"variant": "A15C U44G", "self-cleavage": 0.739},
      {"variant": "A15C U44C", "self-cleavage": 0.659},
      {"variant": "A15C U44A", "self-cleavage": 0.662},
      {"variant": "A15G G37A", "self-cleavage": 0.27},
      {"variant": "A15G G37U", "self-cleavage": 0.286},
      {"variant": "A15C G48U", "self-cleavage": 0.883},
      {"variant": "A15C G48A", "self-cleavage": 0.935},
      {"variant": "A15C G48C", "self-cleavage": 0.918},
      {"variant": "A15C G41A", "self-cleavage": 0.289},
      {"variant": "A15C G41C", "self-cleavage": 0.215},
      {"variant": "A15G U69A", "self-cleavage": 1.04},
      {"variant": "A15G U69G", "self-cleavage": 1.05},
      {"variant": "A15G U69C", "self-cleavage": 1.05},
      {"variant": "A15C G30A", "self-cleavage": 0.392},
      {"variant": "A15C G30U", "self-cleavage": 0.0766},
      {"variant": "A15C A60G", "self-cleavage": 0.292},
      {"variant": "A15C A60C", "self-cleavage": 0.308},
      {"variant": "A15C A60U", "self-cleavage": 0.377},
      {"variant": "A15C C24U", "self-cleavage": 0.27},
      {"variant": "A15C C24A", "self-cleavage": 0.273},
      {"variant": "A15C C35A", "self-cleavage": 0.229},
      {"variant": "A15C C35G", "self-cleavage": 0.285},
      {"variant": "A15C C66A", "self-cleavage": 0.357},
      {"variant": "A15C C66U", "self-cleavage": 0.725},
      {"variant": "G14U G37C", "self-cleavage": 0.129},
      {"variant": "G14U G37U", "self-cleavage": 0.129},
      {"variant": "A15U", "self-cleavage": 0.928},
      {"variant": "A15G", "self-cleavage": 1},
      {"variant": "A15C", "self-cleavage": 0.923},
      {"variant": "A15U A52U", "self-cleavage": 0.804},
      {"variant": "A15U A52C", "self-cleavage": 0.889},
      {"variant": "G14U G30C", "self-cleavage": 0.187},
      {"variant": "G14U G30A", "self-cleavage": 0.288},
      {"variant": "G14U G30U", "self-cleavage": 0.155},
      {"variant": "A15G U53G", "self-cleavage": 0.958},
      {"variant": "A15G U53C", "self-cleavage": 0.859},
      {"variant": "A15C U36C", "self-cleavage": 0.487},
      {"variant": "A15C U36G", "self-cleavage": 0.214},
      {"variant": "A15C U36A", "self-cleavage": 0.288},
      {"variant": "G14U C29U", "self-cleavage": 0.111},
      {"variant": "G14U C29A", "self-cleavage": 0.19},
      {"variant": "G14U C29G", "self-cleavage": 0.167},
      {"variant": "A15C C33G", "self-cleavage": 0.259},
      {"variant": "A15C C33A", "self-cleavage": 0.32},
      {"variant": "A15G C33U", "self-cleavage": 0.999},
      {"variant": "A15G C33A", "self-cleavage": 0.798},
      {"variant": "A15G C33G", "self-cleavage": 0.534},
      {"variant": "A15C U49G", "self-cleavage": 0.858},
      {"variant": "A15C U49C", "self-cleavage": 0.842},
      {"variant": "G14U C63A", "self-cleavage": 0.994},
      {"variant": "G14U C63G", "self-cleavage": 0.994},
      {"variant": "G14U C63U", "self-cleavage": 0.893},
      {"variant": "A15C C29U", "self-cleavage": 0.122},
      {"variant": "A15C C29G", "self-cleavage": 0.163},
      {"variant": "A15G G31A", "self-cleavage": 0.874},
      {"variant": "A15G G31C", "self-cleavage": 0.204},
      {"variant": "A15C A51C", "self-cleavage": 0.752},
      {"variant": "A15G C45A", "self-cleavage": 1},
      {"variant": "A15G C45G", "self-cleavage": 0.965},
      {"variant": "A15G C45U", "self-cleavage": 1.02},
      {"variant": "A15C G37U", "self-cleavage": 0.168},
      {"variant": "A15C G37C", "self-cleavage": 0.105},
      {"variant": "A15C G37A", "self-cleavage": 0.196},
      {"variant": "A15C A40G", "self-cleavage": 0.626},
      {"variant": "A15C A40C", "self-cleavage": 0.137},
      {"variant": "G14U G17U", "self-cleavage": 0.161},
      {"variant": "G14U G17A", "self-cleavage": 0.145},
      {"variant": "A15G C18G", "self-cleavage": 0.198},
      {"variant": "A15G C18A", "self-cleavage": 0.192},
      {"variant": "A15G C18U", "self-cleavage": 0.792},
      {"variant": "G14U C45G", "self-cleavage": 0.62},
      {"variant": "G14U C45A", "self-cleavage": 0.665},
      {"variant": "G14U C45U", "self-cleavage": 0.721},
      {"variant": "G14U C22A", "self-cleavage": 0.15},
      {"variant": "G14U C22U", "self-cleavage": 0.15},
      {"variant": "G14U G28U", "self-cleavage": 0.164},
      {"variant": "A15C U64C", "self-cleavage": 0.958},
      {"variant": "A15C U64G", "self-cleavage": 0.91},
      {"variant": "A15C U64A", "self-cleavage": 0.952},
      {"variant": "A15G U61A", "self-cleavage": 0.982},
      {"variant": "A15G U61G", "self-cleavage": 0.822},
      {"variant": "A15G U61C", "self-cleavage": 0.892},
      {"variant": "A15G C32U", "self-cleavage": 1.02},
      {"variant": "A15G C32A", "self-cleavage": 0.816},
      {"variant": "A15G U67A", "self-cleavage": 0.971},
      {"variant": "A15G U67G", "self-cleavage": 0.996},
      {"variant": "A15G U67C", "self-cleavage": 0.943},
      {"variant": "A15C G28C", "self-cleavage": 0.146},
      {"variant": "A15C G28U", "self-cleavage": 0.191},
      {"variant": "A15C G28A", "self-cleavage": 0.138},
      {"variant": "A15G U26C", "self-cleavage": 1.03},
      {"variant": "A15G U26G", "self-cleavage": 0.953},
      {"variant": "A15G U26A", "self-cleavage": 0.905},
      {"variant": "G14U U46C", "self-cleavage": 0.758},
      {"variant": "G14U U46A", "self-cleavage": 0.862},
      {"variant": "G14U G25U", "self-cleavage": 0.124},
      {"variant": "G14U G25A", "self-cleavage": 0.141},
      {"variant": "G14U G25C", "self-cleavage": 0.204},
      {"variant": "A15G G25A", "self-cleavage": 0.127},
      {"variant": "A15G G25U", "self-cleavage": 0.148},
      {"variant": "A15G G25C", "self-cleavage": 0.133},
      {"variant": "G14U G58A", "self-cleavage": 0.679},
      {"variant": "G14U G58C", "self-cleavage": 0.72},
      {"variant": "A15C U69C", "self-cleavage": 0.978},
      {"variant": "G14U G31A", "self-cleavage": 0.305},
      {"variant": "G14U G31U", "self-cleavage": 0.164},
      {"variant": "G14U G31C", "self-cleavage": 0.163},
      {"variant": "A15G U55G", "self-cleavage": 0.85},
      {"variant": "A15G U55C", "self-cleavage": 0.869},
      {"variant": "A15G U55A", "self-cleavage": 0.892},
      {"variant": "A15C G47U", "self-cleavage": 0.916},
      {"variant": "A15G C34U", "self-cleavage": 1.01},
      {"variant": "A15G C34G", "self-cleavage": 0.665},
      {"variant": "A15G C34A", "self-cleavage": 0.764},
      {"variant": "A15C C27G", "self-cleavage": 0.123},
      {"variant": "A15C C27U", "self-cleavage": 0.119},
      {"variant": "G14U C18G", "self-cleavage": 0.0825},
      {"variant": "G14U C18A", "self-cleavage": 0.142},
      {"variant": "G14U C18U", "self-cleavage": 0.225},
      {"variant": "A15G A52C", "self-cleavage": 0.949},
      {"variant": "A15G G19C", "self-cleavage": 0.15},
      {"variant": "A15G G19U", "self-cleavage": 0.439},
      {"variant": "A15G G19A", "self-cleavage": 0.216},
      {"variant": "A15U A16U", "self-cleavage": 0.798},
      {"variant": "A15U A16C", "self-cleavage": 0.135},
      {"variant": "A15C A42C", "self-cleavage": 0.602},
      {"variant": "A15C A42G", "self-cleavage": 0.678},
      {"variant": "A15C A42U", "self-cleavage": 0.618},
      {"variant": "A15G U38C", "self-cleavage": 0.97},
      {"variant": "A15G U38G", "self-cleavage": 0.157},
      {"variant": "A15C C39U", "self-cleavage": 0.535},
      {"variant": "A15C C39G", "self-cleavage": 0.596},
      {"variant": "A15C G58A", "self-cleavage": 0.809},
      {"variant": "A15C G58C", "self-cleavage": 0.84},
      {"variant": "A15G U46C", "self-cleavage": 0.974},
      {"variant": "A15C U61G", "self-cleavage": 0.723},
      {"variant": "A15C U61C", "self-cleavage": 0.356},
      {"variant": "A15C U61A", "self-cleavage": 0.468},
      {"variant": "A15G A40G", "self-cleavage": 0.996},
      {"variant": "A15C G68C", "self-cleavage": 0.917},
      {"variant": "A15C G68U", "self-cleavage": 0.969},
      {"variant": "G14U U36A", "self-cleavage": 0.18},
      {"variant": "A15G U64G", "self-cleavage": 0.918},
      {"variant": "G14U C35G", "self-cleavage": 0.309},
      {"variant": "G14U C35U", "self-cleavage": 0.601},
      {"variant": "A15G C22U", "self-cleavage": 0.287},
      {"variant": "G14U U55C", "self-cleavage": 0.345},
      {"variant": "G14U U55G", "self-cleavage": 0.268},
      {"variant": "A15U A42U", "self-cleavage": 0.613},
      {"variant": "A15U A42C", "self-cleavage": 0.594},
      {"variant": "A15C U67G", "self-cleavage": 0.934},
      {"variant": "G14U G41C", "self-cleavage": 0.245},
      {"variant": "A15G C57A", "self-cleavage": 0.45},
      {"variant": "A15G C57G", "self-cleavage": 0.259},
      {"variant": "A15C C63G", "self-cleavage": 0.921},
      {"variant": "A15G A23G", "self-cleavage": 0.959},
      {"variant": "A15G A23U", "self-cleavage": 1.04},
      {"variant": "G14U A59U", "self-cleavage": 0.365}
    ]}
  ]
}
